In a protein production outcome set (Wang et al. 2014):

Assay: label from the status in PepcDB records

Row | Sequence | protein production
1 | MGLSVGIVGLPNVGKSSTFNALTKTQNAQSANYPFCTIEPNKAIVNVPDRRLDALAQIVKPERILHSVVEFVDIAGLIKGASKGEGLGNQFLANIKECEVILQVVRCFEDDNITHVNDKIDPLNDIETIELELILADIAALDKRIDRLQKALKSSKDAKNLLECALSLKTHLEELKPAKTFPLNTSEAFLELDKELRFLSHKKMIYVANVGEEDLNALNEHAKKVKNHAKEQNSEFVALCAKLEEEMVSMSGDEVKEFLQSLGVEESGLEKTIRLSFKELGLINYFTAGVKEVRSWTIKKGSSAPVAAGVIHKDFEKGFIRAETISYDDFIAYKGEAGAKEKGALRIEGKDYIVQDGDVLHFRFNI | failed
2 | MRYVLYVPDISCNHCKMRISKALEELGVKNYEVSVEEKKVVVETENLDSVLKKLEEIDYPVESYQEV | not failed
3 | MLKSCPMNPRLDALHPYPFEKLRALLADAGKPTHDLPPINLSIGEPKHAAPACVGQAIAANLAGLSVYPSTKGEPALRQAISQWLSRRYSIPAPDPESEVLPVLGSREALFAFAQTVIDPSAGALVVCPNPFYQIYEGAALLAGATPYYVNADPARDFGCDWARVPDEVWRRTQLVFVCSPGNPAGNVMSLEEWRTLFELSDRHGFVIAADECYSEIYLDEDNPPLGSLQAARRLGRDRYTNLVAFSSLSKRSNVPGMRSGFVAGDAALLARFLLYRTYHGSAMSPVVSAASIAAWSDETHVQENRRQYRAKFEAVLPILQNVLDVRAPQASFYLWAGTPGSDTAFARELYGRTGVTVLPGSLLAREAHNANPGQGRIRIALVAPLDQCVQAAERIAHFARTSI | failed
4 | MALPESESARTEQALGRLVGSLCVVTAQQGELSSAMLASWVSQATFSPPGLTVAVAKERAIESLLHKNSCFVLNILQEGNHLGLMKHFLKPFAPGGDRFADVATETAENGAPILTESLAYLECRVQQRLECGDHWVLYAVTDRGALLKDGVTAVHHRKSGDHYLEHHHHHH | failed
5 | MKANNHFKDFAWKKCLLGASVVALLVGCSPHIIETNEVALKLNYHPASEKVQALDEKILLLRPAFQYSDNIAKEYENKFKNQTALKVEQILQNQGYKVISVDSSDKDDLSFSQKKEGYLAVAMNGEIVLRPDPKRTIQKKSEPGLLFSTGLDKMEGVLIPAGFVKVTILEPMSGESLDSFTMDLSELDIQEKFLKTTHSSHSGGLVSTMVKGTDNSNDAIKSALNKIFANIMQEIDKKLTQKNLESYQKDAKELKGKRNR | failed
6 | SQSLYQALWNSADVLRSKMDANDYKSYLLGMVFYKYLSDKMLFFVAETMEEETESLDEALAVYRKYYEDEETHEDLLAVITDEMSYAIHPDLTFTALVERVNDGSFQLEDLAQGFRDIEQSDELYENLFEDIDLYSKKLGATPQKQNQTVAAVMKELAVLDVAGHAGDMLGDAYEYLIGQFATDSGKKAGEFYTPQPVAKLMTQIAFLGREDKQGFTLYDATMGSGSLLLNAKRYSRQPQTVVYFGQELNTSTYNLARMNMILHGVPIENQFLHNADTLDEDWPTQEPTNFDGVLMNPPYSAKWSASSGFMDDPRFSPFGKLAPKSKADFAFLLHGYYHLKQDNGVMAIVLPHGVLFRGNAEGTIRKALLEEGAIDTVIGLPANIFFNTSIPTTVIILKKNRTNRDVYFIDASKEFDKGKNQNIMTDAHIEKILNAYKSREDIDKFAHLASFEEIVENDYNLNIPRYVDTFEEEEVEPLTEIVAKINQTNATIESQTASLLDMLGQLHGTTPEADEELKAFVKAFKG | failed
7 | MTYCLGIVTQAGLIMAADSRTNAGIDYISTYQKLFDFSLPGDRTIVICCSGNLSITQAVLSQLRRDLAGHFDINLHSLPTMYDLARYLGQKVRQLQESDRDWLKQDGIDFYCNFLLGGQIRGGPIELYLVYGQGNCIHATPETPYLQIGETKYGKPILDRTISFDTSLDMAAKCALMSLDSTMRSNLSVGPPLNLARYERDSLVAPMLVQFPAGHEYLVEMRRRWEISLKDAFMRLPDIDWSRQLMRSLSPVSESVPLEHHHHHH | failed
8 | MMMHPMNKTNKRDKMEKRNNPSALNIFMSFLKLGMVAFGGPTAIAYVREMVVDEKKWMDEKSFNNGVALAQIIPGASVMQVAAYVGFYLRGIVGAFAAFMAYALPAFLIMLFLTIIYMHVKSLPKTVSIFEALRIIVVSLAANGTLNFSKKNIRTIGDVFLLLISALLFILKFSPFIVIFVSIFIGFLMYRRDITKLSLKIDIPREKLRIYKYVAYLLFGVFLFNLILYMIDSKLFLLSTLMMKVDVFAFGGGYGSVPFMLHEVVDKYNLMDAKTFMDGIALGQITPGPIVITATFVGYIVGGFIGSIISTISVFTPSFIILLSSIPIFDSLKHNTIFKNILHMILVSFVGLLVAVTIRFALLVDWSIQALIIFIVSFLLLYKKYNMLLVVLLSLVLGYLIL | failed
9 | MNLSSASSTEEKAVTTVLWGCELSQERRTWTFRPQLEGKQSCRLLLHTICLGEKAKEEMHRVEILPPANQEDKKMQPVTIASLQASVLPMVSMVGVQLSPPVTFQLRAGSGPVFLSGQERYEASDLTWEEEEEEEGEEEEEEEEDDEDEDADISLEEQSPVKQVKRLVPQKQASVAKKKKLEKEEEEIRASVRDKSPVKKAKATARAKKPGFKK | failed
10 | MEEEEARQVVIDNDLKKKIKETVKKILKRSSLLEITEIKAREEASSELNLDLSRDPYKIIVREAVDSFIEKAIMTIDTEMGKLHTQIVEDVDGEVTENATKTTTKKKKKKKAKKKVEEEESSPA | failed
11 | MKNKIILGCLAAAACEILFGLSFIFTKSITAQASGLALISWRFVTAFFFVNLYLLTKRQKVVINGRNIKPLIRIAILNPIIYFICETIGIRMTTASESGAFLACIPVVALIMSSLILKEWPSRWQVVGVATTLIGIIIAVFAAGGSTNFSLVGYFILGLAVVSYALYCVDVEKASQFTSFEITYFMLASGCLTFGLFALSHSFLAGNLKELLTLPWSNPKFAITILYQGLGCSVIGYILSNFAIATIGVNRTASFIGISTIISILAAVVFLGEPFSQLQILAGILVVLGVYVANKN | failed
12 | MKRFIIKSDRIGFSIWEETDLKEALELWGNSNVTKYITADGKMSIEDVKTRLKVEIEFYEKYKVQYWPIFLNETSENLGVCGLHPYNIKDSVFELGVHLREKYWGIGVAEKACNLVMRYAFENLQAKAIFVGHNPNNKASKKLIKKLGFTYTHDEFYEPTGLYHPSYLITCNEFIEVKNKLKGGKIIGKNK | not failed
13 | MTGTLLSFGHGYTARVLSRALAPQGWRIIGTSRNPDQMEAIRASGAEPLLWPGEEPSLDGVTHLLISTAPDSGGDPVLAALGDQIAARAAQFRWVGYLSTTAVYGDHDGAWVDETTPLTPTAARGRWRVMAEQQWQAVPNLPLHVFRLAGIYGPGRGPFSKLGKGGIRRIIKPGQVFSRIHVEDIAQVLAASMARPDPGAVYNVCDDEPVPPQDVIAYAAELQGLPLPPAVDFDKADLTPMARSFYSENKRVRNDRIKEELGVRLKYPNYRVGLEALQADAET | not failed
14 | MPKLLIPAIIFITLALIFYTIGVWSEHRAGILKKKHVIIFWCGLVCDTLGTYTMSRIVAAGTDKGITPTDLLIHQSTGMLAIILMLIHAVWATIVLNRGSEKAKAIFHKFSLVVWFIWLIPYFVGMYIGMTS | failed
15 | MYPLAFAKEGEEVIVKKIDAGCGAMQRLVSMGINIGSKLKVIRNQNGPVIISTKGSNIAIGRGLAMKIMVEDAEYGGENEKLLEHHHHHH | failed
16 | MASVAAARAVPVGSGLRGLQRTLPLVVILGATGTGKSTLALQLGQRLGGEIVSADSMQVYEGLDIITNKVSAQEQRICRHHMISFVDPLVTNYTVVDFRNRATALIEDIFARDKIPIVVGGTNYYIESLLWKVLVNTKPQEMGTEKVIDRKVELEKEDGLVLHKRLSQVDPEMAAKLHPHDKRKVARSLQVFEETGISHSEFLHRQHTEEGGGPLGGPLKFSNPCILWLHADQAVLDERLDKRVDDMLAAGLLEELRDFHRRYNQKNVSENSQDYQHGIFQSIGFKEFHEYLITEGKCTLETSNQLLKKGIEALKQVTKRYARKQNRWVKNRFLSRPGPIVPPVYGLEVSDVSKWEESVLEPALEIVQSFIQGHKPTATPIKMPYNEAENKRSYHLCDLCDRIIIGDREWAAHIKSKSHLNQLKKRRRLDSDAVNTIESQSVSPDHNKEPKEKGSPGQNDQELKCSV | failed
17 | MALGHRCRRFGTDKITSRPLRRQPQENPMNIKQLITAALIASAAFATQAAPQKPVSAAQTAQHSAVWIDVRSEQEFSEGHLHNAVNIPVDQIVRRIYEAAPDKDTPVNLYCRSGRRAEAALQELKKAGYTNVANHGGYEDLLKKGMK | failed
18 | MEDSGKTFSSEEEEANYWKDLAMTYKQRAENTQEELREFQEGSREYEAELETQLQQIETRNRDLLSENNRLRMELETIKEKFEVQHSEGYRQISALEDDLAQTKAIKDQLQKYIRELEQANDDLERAKRATIMSLEDFEQRLNQAIERNAFLESELDEKENLLESVQRLKDEARDLRQELAVQQKQEKPRTPMPSSVEAERTDTAVQATGSVPSTPIAHRGPSSSLNTPGSFRRGLDDSTGGTPLTPAARISALNIVGDLLRKVGALESKLASCRNLVYDQSPNRTGGPASGRSSKNRDGGERRPSSTSVPLGDKGLGKRLEFGKPPSHMSSSPLPSAQGVVKMLL | failed
19 | MTIAVLGATGMVGSRVITEAGARGHRVLALSRKPASEDPNVTLIAADANDPSAVREALAGVASNRAADAVVLTVRTHPVDQEFLIGATRTVLDIAAQLGIRVLVVGGAGALRSPDDHDLLVADNPTYVPAEWKTTAAAGIAQLRACQAHADADWVYLSPPALLEPGERTGRYRRGTDTLLTSADGRSWISAEDLAVAVVDELETPGRERLITVAHRDEPPSA | failed
20 | MTLVRMTEKLLSPLHTRPWPERWLTRVLGAALASAAYLLCLPWDLNNRAPSPGAVEETTPVTGVGVVALAVILLALAAYFGHRDSLGWPVLLVAVPPAALLYVSLRTHPGPPDGFAGVWPLVWGFFTLLIGVGVLVAAAVAREFRADLVDEELSLAHRR | failed
21 | MSVPGPSSPDGALTRPPYCLEAGEPTPGLSDTSPDEGLIEDLTIEDKAVEQLAEGLLSHYLPDLQRSKQALQELTQNQVVLLDTLEQEISKFKECHSMLDINALFAEAKHYHAKLVNIRKEMLMLHEKTSKLKKRALKLQQKRQKEELEREQQREKEFEREKQLTARPAKRM | failed
22 | MLTQGNFDVLPVGDGAKRAQTVQPTVKLRIETIGVPRISDENGRNLTPVGSRNRVIPVILALSPRMTVGRRWLEALLWSDRGPDQASGSLRQALSSIRRQLGDARDILCANRTDIWMTSKDVTIDLLDDQQGVLQRLRAGRDFLEGIDILSEGFEDWLRQERASLLQMAEVELPARALPARLHATEAERPLSWTQEPPRFFLDQDLGLESDKLERFLTDAISTQLTQTVKSHFRADVRALDGTLTPVIVTPGARFAIRVTRINKAFAVLARMTEEPAGRLFWSRQLFIDSRETESMMDTAAALATEASEAMGARSFVASPAQQANVLAAEALADVFSFDPDRLRKAIRTLGRANDIDPHAPRPALKALALAFLALETRNTDRDHLIGEVTDLIRQSRALDSRNALALSFLADVQDLVFEDPQTALSYAKSALRSNPGIGYAYASLGALELRRGAAEAALIAASRAQRQLANSSLEVFSLMRLCVANLTAKDFDAAEQAAQRAAELAPTSQPPLRHLYALRLRRKDYAAARQTLRALRRLDPLFSMQYLRENPEFPAATIRTMQLHKLMDVELG | failed
